In PMC9968394:

Tests used:
Assay in all cases: SPR; Biacore; anti-OGT VNARs diluted to 100 nM; recombinant ncOGT in PBS at 50, 100, 200, 400 and 800 nM introduced successively; binding 120 s, dissociation 200 s in PBS; Langmuir model fit; who was immobilised is not said
[1] = target: anti-OGT VNAR 2D9 (Chiloscyllium plagiosum (whitespotted bambooshark))
[2] = target: anti-OGT VNAR 3F7 (Chiloscyllium plagiosum (whitespotted bambooshark))
[3] = target: anti-OGT VNAR 4G2 (Chiloscyllium plagiosum (whitespotted bambooshark))

B1: recombinant ncOGT protein (O-GlcNAc transferase) (enzyme)
chain: MASSVGNVADSTEPTKRMLSFQGLAELAHREYQAGDFEAAERHCMQLWRQEPDNTGVLLLLSSIHFQCRRLDRSAHFSTLAIKQNPLLAEAYSNLGNVYKERGQLQEAIEHYRHALRLKPDFIDGYINLAAALVAAGDMEGAVQAYVSALQYNPDLYCVRSDLGNLLKALGRLEEAKACYLKAIETQPNFAVAWSNLGCVFNAQGEIWLAIHHFEKAVTLDPNFLDAYINLGNVLKEARIFDRAVAAYLRALSLSPNHAVVHGNLACVYYEQGLIDLAIDTYRRAIELQPHFPDAYCNLANALKEKGSVAEAEDCYNTALRLCPTHADSLNNLANIKREQGNIEEAVRLYRKALEVFPEFAAAHSNLASVLQQQGKLQEALMHYKEAIRISPTFADAYSNMGNTLKEMQDVQGALQCYTRAIQINPAFADAHSNLASIHKDSGNIPEAIASYRTALKLKPDFPDAYCNLAHCLQIVCDWTDYDERMKKLVSIVADQLEKNRLPSVHPHHSMLYPLSHGFRKAIAERHGNLCLDKINVLHKPPYEHPKDLKLSDGRLRVGYVSSDFGNHPTSHLMQSIPGMHNPDKFEVFCYALSPDDGTNFRVKVMAEANHFIDLSQIPCNGKAADRIHQDGIHILVNMNGYTKGARNELFALRPAPIQAMWLGYPGTSGALFMDYIITDQETSPAEVAEQYSEKLAYMPHTFFIGDHANMFPHLKKKAVIDFKSNGHIYDNRIVLNGIDLKAFLDSLPDVKIVKMKCPDGGDNADSSNTALNMPVIPMNTIAEAVIEMINRGQIQITINGFSISNGLATTQINNKAATGEEVPRTIIVTTRSQYGLPEDAIVYCNFNQLYKIDPSTLQMWANILKRVPNSVLWLLRFPAVGEPNIQQYAQNMGLPQNRIIFSPVAPKEEHVRRGQLADVCLDTPLCNGHTTGMDVLWAGTPMVTMPGETLASRVAASQLTCLGCLELIAKNRQEYEDIAVKLGTDLEYLKKVRGKVWKQRISSPLFNTKQYTMELERLYLQMWEHYAAGNKPDHMIKPVEVTESA
Kd [1]: 35.5 nM | koff [1]: 0.000675 s⁻¹ | kon [1]: 19000 M⁻¹ s⁻¹ | Kd [2]: 53.4 nM | koff [2]: 0.00106 s⁻¹ | kon [2]: 19800 M⁻¹ s⁻¹ | Kd [3]: 89.7 nM | koff [3]: 0.00076 s⁻¹
